{
  "source": "paper PMC10881513",
  "about": "(Nature Communications, 2024)",
  "binders": {"B1": {"name": "ASFV RNA polymerase subunit vRPB10 (natural protein)", "chain": "MLIPVVCFTCGFPIGTYAAIFDKARTEYIKTKMDGTLPQNIPLDASLQIELKDLITALGIPMRVCCRTHLITTLDYRKYY"}},
  "target": "ASFV RNA polymerase subunit vRPB3-11 (African swine fever virus, strain BA71V, UniProt Q65184 1-359)",
  "sequence (Q65184 whole entry)": "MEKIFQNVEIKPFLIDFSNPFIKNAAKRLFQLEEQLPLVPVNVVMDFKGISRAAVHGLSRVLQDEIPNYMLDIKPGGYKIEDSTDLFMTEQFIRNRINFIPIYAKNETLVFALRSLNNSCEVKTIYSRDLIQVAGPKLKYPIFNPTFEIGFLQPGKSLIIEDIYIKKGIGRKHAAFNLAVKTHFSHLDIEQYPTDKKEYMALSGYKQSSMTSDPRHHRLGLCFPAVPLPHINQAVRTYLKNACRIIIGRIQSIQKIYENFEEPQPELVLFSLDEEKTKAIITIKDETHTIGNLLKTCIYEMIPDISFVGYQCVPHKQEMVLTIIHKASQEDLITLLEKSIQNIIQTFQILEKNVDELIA",
  "test": "cryo-EM structure",
  "details": "both partners purified",
  "data": [
    {"binder": "B1", "values": [
      {"measurement": "binding result", "value": "binds"}
    ]}
  ]
}
